Measurements published in ChEMBL document CHEMBL1126004, “Synthesis and resolution of 7-fluorotryptophans” (Bioorg Med Chem Lett, 1991).

Legend:
[1] = substrate: N[C@@H](Cc1c[nH]c2ccccc12)C(=O)O; assay: (§1) Compound was evaluated for relative maximum velocity (Vmax) in a reaction with tryptophan indole-lyase (tryptophanase) from Escherichia coli
[2] = substrate: N[C@@H](Cc1c[nH]c2c(F)cc(F)cc12)C(=O)O; assay: as §1
[3] = substrate: N[C@@H](Cc1c[nH]c2c(F)ccc(F)c12)C(=O)O; assay: as §1
[4] = substrate: N[C@@H](Cc1c[nH]c2c(F)cccc12)C(=O)O; assay: as §1
[5] = substrate: N[C@@H](Cc1c[nH]c2ccccc12)C(=O)O; assay: (§2) Compound was evaluated for Michaelis-Menten constant (Km) in a reaction with tryptophan indole-lyase (tryptophanase) from Escherichia coli
[6] = substrate: N[C@@H](Cc1c[nH]c2c(F)cc(F)cc12)C(=O)O; assay: as §2
[7] = substrate: N[C@@H](Cc1c[nH]c2c(F)ccc(F)c12)C(=O)O; assay: as §2
[8] = substrate: N[C@@H](Cc1c[nH]c2c(F)cccc12)C(=O)O; assay: as §2

B1: Tryptophan 2,3-dioxygenase (Homo sapiens), P48775 (protein)
chain: MSGCPFLGNNFGYTFKKLPVEGSEEDKSQTGVNRASKGGLIYGNYLHLEKVLNAQELQSETKGNKIHDEHLFIITHQAYELWFKQILWELDSVREIFQNGHVRDERNMLKVVSRMHRVSVILKLLVQQFSILETMTALDFNDFREYLSPASGFQSLQFRLLENKIGVLQNMRVPYNRRHYRDNFKGEENELLLKSEQEKTLLELVEAWLERTPGLEPHGFNFWGKLEKNITRGLEEEFIRIQAKEESEEKEEQVAEFQKQKEVLLSLFDEKRHEHLLSKGERRLSYRALQGALMIYFYREEPRFQVPFQLLTSLMDIDSLMTKWRYNHVCMVHRMLGSKAGTGGSSGYHYLRSTVSDRYKVFVDLFNLSTYLIPRHWIPKMNPTIHKFLYTAEYCDSSYFSSDESD
Which results are given for B1?
Vmax [1]: 100%; Vmax [2]: 58%; Vmax [3]: 42%; Vmax [4]: 29%; Km [5]: 260 µM; Km [6]: 490 µM; Km [7]: 1700 µM; Km [8]: 640 µM
